{"source": "the supplement of paper PMC10567573", "parents": {"B1": {"name": "PLK2 (parent)", "chain": "MELLRTITYQPAASTKMCEQALGK"}}}
{"variants_of": "B1", "experiment": "protein stability index of a GFP-peptide fusion (GPS, HEK-293T) (PSI 1-6); higher = more stable", "settings": "c terminus: a fixed tail appended"}
{"variant": "MELLRTIGYQPAASTKMCEQALGK", "protein stability index": 2.44}
{"variant": "MELLRTIHYQPAASTKMCEQALGK", "protein stability index": 2.03}
{"variant": "MELLRTIIYQPAASTKMCEQALGK", "protein stability index": 3.71}
{"variant": "MELLRTIKYQPAASTKMCEQALGK", "protein stability index": 2.25}
{"variant": "MELLRTILYQPAASTKMCEQALGK", "protein stability index": 2.91}
{"variant": "MELLRTIMYQPAASTKMCEQALGK", "protein stability index": 1.96}
{"variant": "MELLRTINYQPAASTKMCEQALGK", "protein stability index": 2.68}
{"variant": "MELLRTIPYQPAASTKMCEQALGK", "protein stability index": 1.97}
{"variant": "MELLRTIQYQPAASTKMCEQALGK", "protein stability index": 1.94}
{"variant": "MELLRTIRYQPAASTKMCEQALGK", "protein stability index": 2.5}
{"variant": "MELLRTISYQPAASTKMCEQALGK", "protein stability index": 2.21}
{"variant": "MELLRTIVYQPAASTKMCEQALGK", "protein stability index": 2.49}
{"variant": "MELLRTIWYQPAASTKMCEQALGK", "protein stability index": 2.55}
{"variant": "MELLRTIYYQPAASTKMCEQALGK", "protein stability index": 2.93}
{"variant": "MELLRTITAQPAASTKMCEQALGK", "protein stability index": 2.52}
{"variant": "MELLRTITCQPAASTKMCEQALGK", "protein stability index": 2.38}
{"variant": "MELLRTITDQPAASTKMCEQALGK", "protein stability index": 2}
{"variant": "MELLRTITEQPAASTKMCEQALGK", "protein stability index": 2.05}
{"variant": "MELLRTITFQPAASTKMCEQALGK", "protein stability index": 2.05}
{"variant": "MELLRTITGQPAASTKMCEQALGK", "protein stability index": 2.46}
{"variant": "MELLRTITHQPAASTKMCEQALGK", "protein stability index": 2.1}
{"variant": "MELLRTITIQPAASTKMCEQALGK", "protein stability index": 2.34}
{"variant": "MELLRTITKQPAASTKMCEQALGK", "protein stability index": 1.64}
{"variant": "MELLRTITLQPAASTKMCEQALGK", "protein stability index": 1.73}
{"variant": "MELLRTITMQPAASTKMCEQALGK", "protein stability index": 1.89}
{"variant": "MELLRTITNQPAASTKMCEQALGK", "protein stability index": 2.16}
{"variant": "MELLRTITPQPAASTKMCEQALGK", "protein stability index": 2.04}
{"variant": "MELLRTITQQPAASTKMCEQALGK", "protein stability index": 2.01}
{"variant": "MELLRTITRQPAASTKMCEQALGK", "protein stability index": 2.19}
{"variant": "MELLRTITSQPAASTKMCEQALGK", "protein stability index": 3.53}
{"variant": "MELLRTITTQPAASTKMCEQALGK", "protein stability index": 2.29}
{"variant": "MELLRTITVQPAASTKMCEQALGK", "protein stability index": 2.11}
{"variant": "MELLRTITWQPAASTKMCEQALGK", "protein stability index": 1.45}
{"variant": "MELLRTITYAPAASTKMCEQALGK", "protein stability index": 2.79}
{"variant": "MELLRTITYCPAASTKMCEQALGK", "protein stability index": 1.28}
{"variant": "MELLRTITYDPAASTKMCEQALGK", "protein stability index": 2.11}
{"variant": "MELLRTITYEPAASTKMCEQALGK", "protein stability index": 2.5}
{"variant": "MELLRTITYGPAASTKMCEQALGK", "protein stability index": 3.21}
{"variant": "MELLRTITYHPAASTKMCEQALGK", "protein stability index": 1.81}
{"variant": "MELLRTITYIPAASTKMCEQALGK", "protein stability index": 2.81}
{"variant": "MELLRTITYKPAASTKMCEQALGK", "protein stability index": 2.78}
{"variant": "MELLRTITYLPAASTKMCEQALGK", "protein stability index": 2.49}
{"variant": "MELLRTITYMPAASTKMCEQALGK", "protein stability index": 1.99}
{"variant": "MELLRTITYNPAASTKMCEQALGK", "protein stability index": 3.54}
{"variant": "MELLRTITYPPAASTKMCEQALGK", "protein stability index": 2.83}
{"variant": "MELLRTITYRPAASTKMCEQALGK", "protein stability index": 2.97}
{"variant": "MELLRTITYSPAASTKMCEQALGK", "protein stability index": 2.54}
{"variant": "MELLRTITYTPAASTKMCEQALGK", "protein stability index": 2.12}
{"variant": "MELLRTITYVPAASTKMCEQALGK", "protein stability index": 4.15}
{"variant": "MELLRTITYWPAASTKMCEQALGK", "protein stability index": 2.6}
{"variant": "MELLRTITYYPAASTKMCEQALGK", "protein stability index": 3.24}
{"variant": "MELLRTITYQAAASTKMCEQALGK", "protein stability index": 2.12}
{"variant": "MELLRTITYQDAASTKMCEQALGK", "protein stability index": 1.6}
{"variant": "MELLRTITYQEAASTKMCEQALGK", "protein stability index": 1.91}
{"variant": "MELLRTITYQFAASTKMCEQALGK", "protein stability index": 2.52}
{"variant": "MELLRTITYQGAASTKMCEQALGK", "protein stability index": 2.1}
{"variant": "MELLRTITYQHAASTKMCEQALGK", "protein stability index": 2.39}
{"variant": "MELLRTITYQIAASTKMCEQALGK", "protein stability index": 2.82}
{"variant": "MELLRTITYQKAASTKMCEQALGK", "protein stability index": 1.93}
{"variant": "MELLRTITYQLAASTKMCEQALGK", "protein stability index": 4.39}
{"variant": "MELLRTITYQMAASTKMCEQALGK", "protein stability index": 2.15}
{"variant": "MELLRTITYQNAASTKMCEQALGK", "protein stability index": 1.82}
{"variant": "MELLRTITYQQAASTKMCEQALGK", "protein stability index": 2.65}
{"variant": "MELLRTITYQRAASTKMCEQALGK", "protein stability index": 2.16}
{"variant": "MELLRTITYQSAASTKMCEQALGK", "protein stability index": 3.09}
{"variant": "MELLRTITYQTAASTKMCEQALGK", "protein stability index": 2.72}
{"variant": "MELLRTITYQVAASTKMCEQALGK", "protein stability index": 3.59}
{"variant": "MELLRTITYQYAASTKMCEQALGK", "protein stability index": 2.69}
{"variant": "MELLRTITYQPCASTKMCEQALGK", "protein stability index": 2.82}
{"variant": "MELLRTITYQPDASTKMCEQALGK", "protein stability index": 1.82}
{"variant": "MELLRTITYQPEASTKMCEQALGK", "protein stability index": 2.58}
{"variant": "MELLRTITYQPFASTKMCEQALGK", "protein stability index": 2.97}
{"variant": "MELLRTITYQPGASTKMCEQALGK", "protein stability index": 2.32}
{"variant": "MELLRTITYQPHASTKMCEQALGK", "protein stability index": 2.41}
{"variant": "MELLRTITYQPIASTKMCEQALGK", "protein stability index": 2.35}
{"variant": "MELLRTITYQPKASTKMCEQALGK", "protein stability index": 2.03}
{"variant": "MELLRTITYQPLASTKMCEQALGK", "protein stability index": 2.57}
{"variant": "MELLRTITYQPMASTKMCEQALGK", "protein stability index": 1.47}
{"variant": "MELLRTITYQPNASTKMCEQALGK", "protein stability index": 2.8}
{"variant": "MELLRTITYQPPASTKMCEQALGK", "protein stability index": 2.18}
{"variant": "MELLRTITYQPQASTKMCEQALGK", "protein stability index": 2.03}
{"variant": "MELLRTITYQPRASTKMCEQALGK", "protein stability index": 2.34}
{"variant": "MELLRTITYQPSASTKMCEQALGK", "protein stability index": 1.56}
{"variant": "MELLRTITYQPTASTKMCEQALGK", "protein stability index": 2.81}
{"variant": "MELLRTITYQPVASTKMCEQALGK", "protein stability index": 2.4}
{"variant": "MELLRTITYQPWASTKMCEQALGK", "protein stability index": 1.79}
{"variant": "MELLRTITYQPYASTKMCEQALGK", "protein stability index": 2.21}
{"variant": "MELLRTITYQPACSTKMCEQALGK", "protein stability index": 3.34}
{"variant": "MELLRTITYQPADSTKMCEQALGK", "protein stability index": 2.51}
{"variant": "MELLRTITYQPAESTKMCEQALGK", "protein stability index": 2.09}
{"variant": "MELLRTITYQPAFSTKMCEQALGK", "protein stability index": 2.33}
{"variant": "MELLRTITYQPAGSTKMCEQALGK", "protein stability index": 2.97}
{"variant": "MELLRTITYQPAHSTKMCEQALGK", "protein stability index": 2.36}
{"variant": "MELLRTITYQPAISTKMCEQALGK", "protein stability index": 1.82}
